The source of these data is article PMC5428714, “The structures of a naturally empty cowpea mosaic virus particle and its genome-containing counterpart by cryo-electron microscopy” (Scientific Reports, 2017).

Data set [1] concerns the target T1, Cowpea mosaic virus (CPMV) Large (L) coat protein (Cowpea mosaic virus, UniProt P03599 460-833).
T1 construct: Large (L) coat protein of Cowpea mosaic virus, cut from the RNA-2-encoded precursor polyprotein (VP60) by the 24 K viral proteinase; numbers count on: the mature L subunit; 60 copies each of L and S form the icosahedral capsid; also called L subunit; large coat protein subunit; source: for the cleaved eVLP map: recombinant eVLP from transient expression of VP60 and the 24 K protease
T1 sequence: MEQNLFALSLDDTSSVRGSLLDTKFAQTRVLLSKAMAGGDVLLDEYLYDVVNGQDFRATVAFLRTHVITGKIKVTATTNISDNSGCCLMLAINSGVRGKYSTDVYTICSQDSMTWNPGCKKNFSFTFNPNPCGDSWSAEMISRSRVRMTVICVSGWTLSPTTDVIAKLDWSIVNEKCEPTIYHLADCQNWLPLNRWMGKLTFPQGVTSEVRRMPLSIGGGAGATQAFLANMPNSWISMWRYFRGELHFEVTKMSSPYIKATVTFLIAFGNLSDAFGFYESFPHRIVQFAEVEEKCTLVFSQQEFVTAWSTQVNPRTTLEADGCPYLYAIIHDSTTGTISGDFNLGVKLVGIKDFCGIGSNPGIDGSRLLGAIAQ
Nature of the data set: cryo-EM structure; purified CPMV-T particles (naturally empty capsid assembled in planta), ~1.92 mg/ml, vitrified at 4 °C; icosahedral (I3) symmetry imposed; 4.25 Å. The following applies: both partners purified.

Data set [2] concerns the molecule itself. The description is as above.

B1: Cowpea mosaic virus (CPMV) Small (S) coat protein with the C terminal extension (as in CPMV-T) (natural protein)
chain: GPVCAEASDVYSPCMIASTPPAPFSDVTAVTFDLINGKITPVGDDNWNTHIYNPPIMNVLRTAAWKSGTIHVQLNVRGAGVKRADWDGQVFVYLRQSMNPESYDARTFVISQPGSAMLNFSFDIIGPNSGFEFAESPWANQTTWYLECVATNPRQIQQFEVNMRFDPNFRVAGNILMPPFPLSTETPPLLKFRFRDIERSKRSVMVGHTATAA
notes: Small (S) coat protein of Cowpea mosaic virus, cut from the RNA-2-encoded precursor polyprotein (VP60), with the 24 amino acid C terminal extension kept; density to Thr184 and from Pro188 to Ile197; numbers count on: the mature S subunit; Naturally empty particles are cleaved more slowly and keep the C-terminus for longer; residues after Ile197 are not seen in the map; also called S subunit; …
B1: the binding result in data set [1] and in data set [2] was “binds” in each case.
